Measurements reported in the supplement of paper PMC7877785.
± gives the uncertainty stated by the source.

Assay: self-splicing fitness, log relative to wild type (ln ratio); higher = more splicing; Tetrahymena group I intron in knt gene, E. coli kanamycin selection, DiMSum; sequences stand for … in CUCUCU…GGAGGGAAAAGUUAUCAGGCAUGCACCUGGUAGCUAGUCUUUAAACCAAUAGAUUGCAUCGGUUUAAAAGGCAAGACCGUCAAAUUGCGGGAAAGGGGUCAACAGCCGUUCAGUACCAAGUCUCAGGGGAAACUUUGAGAUGGCCUUGCAAAGGGUAUGGUAAUAAGCUGACGGACAUGGUCCUAACCACGCAGCCAAGUCCUAAGUCAACAGAUCUUCUGUUGAUAUGGAUGCAGUUCACAGACUAAAUGUCGGUCGGGGAAGAUGUAUUCUUCUCAUAAGAUAUAGUCGGACCUCUCCUUAAUGGGAGCUAGCGGAUGAAGUGAUGCAACACUGGAGCCGCUGGGAACUAAUUUGUAUGCGAAAGUAUAUUGAUUAGUUUUGGAGUACUCGUGGUCG
How it was run: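 Fitness was computed with DiMSum as the error-weighted combination of replicate fold changes, kanamycin versus none, each normalised to wild type. The library randomised all eight intron nucleotides of the P1ex region, with the intron placed in the knt kanamycin-resistance gene on pET-22b(+) in E. coli BL21(DE3). Six replicate transformations were grown overnight at 37°C or 30°C on LB agar with or without 25 μg/mL kanamycin, plus 100 μg/mL carbenicillin, 50 μM IPTG and 0.2% rhamnose. Pooled colonies were amplicon-sequenced on an Illumina HiSeq 2500.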

## CCCUAGCAAUAUUACGAGGA
30 °C
  self-splicing fitness (ln): -1.66 ± 0.074
37 °C
  self-splicing fitness (ln): -0.53 ± 0.075

## CCCUAGCAAUAUUACGAUAU
30 °C
  self-splicing fitness (ln): -2.92 ± 0.15
37 °C
  self-splicing fitness (ln): -2.97 ± 0.27

## CCCUAGCAAUAUUACGAUGA
30 °C
  self-splicing fitness (ln): -3.24 ± 0.18
37 °C
  self-splicing fitness (ln): -2.35 ± 0.2

## CCCUAGCAAUAUUACGCAAG
30 °C
  self-splicing fitness (ln): -3.65 ± 0.28
37 °C
  self-splicing fitness (ln): -2.06 ± 0.23

## CCCUAGCAAUAUUACGCAGC
30 °C
  self-splicing fitness (ln): -3 ± 0.17
37 °C
  self-splicing fitness (ln): -3.24 ± 0.35

## CCCUAGCAAUAUUACGCAUG
30 °C
  self-splicing fitness (ln): -2.33 ± 0.14
37 °C
  self-splicing fitness (ln): -2.73 ± 0.2

## CCCUAGCAAUAUUACGCCGG
30 °C
  self-splicing fitness (ln): -3.09 ± 0.17
37 °C
  self-splicing fitness (ln): -1.6 ± 0.22

## CCCUAGCAAUAUUACGCCGU
30 °C
  self-splicing fitness (ln): -2.57 ± 0.25
37 °C
  self-splicing fitness (ln): -2.42 ± 0.39

## CCCUAGCAAUAUUACGCGAC
30 °C
  self-splicing fitness (ln): -4.32 ± 0.36
37 °C
  self-splicing fitness (ln): -2.67 ± 0.33

## CCCUAGCAAUAUUACGCGGG
30 °C
  self-splicing fitness (ln): -3.75 ± 0.23
37 °C
  self-splicing fitness (ln): -1.92 ± 0.2

## CCCUAGCAAUAUUACGGAGU
30 °C
  self-splicing fitness (ln): -4.58 ± 0.36
37 °C
  self-splicing fitness (ln): -2.99 ± 0.35

## CCCUAGCAAUAUUACGGAUU
30 °C
  self-splicing fitness (ln): -4.34 ± 0.23
37 °C
  self-splicing fitness (ln): -2.26 ± 0.16

## CCCUAGCAAUAUUACGGCUA
30 °C
  self-splicing fitness (ln): -2.53 ± 0.17
37 °C
  self-splicing fitness (ln): -3.13 ± 0.31

## CCCUAGCAAUAUUACGGGAC
30 °C
  self-splicing fitness (ln): -2.48 ± 0.18
37 °C
  self-splicing fitness (ln): -1.87 ± 0.23

## CCCUAGCAAUAUUACGGUAU
30 °C
  self-splicing fitness (ln): -3.5 ± 0.14
37 °C
  self-splicing fitness (ln): -2.13 ± 0.14

## CCCUAGCAAUAUUACGUAAG
30 °C
  self-splicing fitness (ln): -3.8 ± 0.18
37 °C
  self-splicing fitness (ln): -2.04 ± 0.17

## CCCUAGCAAUAUUACGUAUA
30 °C
  self-splicing fitness (ln): -3.24 ± 0.25
37 °C
  self-splicing fitness (ln): -2.89 ± 0.4

## CCCUAGCAAUAUUACGUCGG
30 °C
  self-splicing fitness (ln): -3.32 ± 0.22
37 °C
  self-splicing fitness (ln): -2.57 ± 0.23

## CCCUAGCAAUAUUACGUCUG
30 °C
  self-splicing fitness (ln): -2.99 ± 0.18
37 °C
  self-splicing fitness (ln): -3.17 ± 0.22

## CCCUAGCAAUAUUACGUGAG
30 °C
  self-splicing fitness (ln): -3.42 ± 0.22
37 °C
  self-splicing fitness (ln): -2.38 ± 0.23

## CCCUAGCAAUAUUACGUUGA
30 °C
  self-splicing fitness (ln): -3.23 ± 0.19
37 °C
  self-splicing fitness (ln): -2.83 ± 0.23

## CCCUAGCAAUAUUACGUUUA
30 °C
  self-splicing fitness (ln): -2.91 ± 0.14
37 °C
  self-splicing fitness (ln): -2.16 ± 0.16

## CCGAAGCAAUAUUACGAAAA
30 °C
  self-splicing fitness (ln): -1.87 ± 0.26
37 °C
  self-splicing fitness (ln): -1.09 ± 0.27

## CCGAAGCAAUAUUACGACGA
30 °C
  self-splicing fitness (ln): -1.44 ± 0.12
37 °C
  self-splicing fitness (ln): -0.711 ± 0.13

## CCGAAGCAAUAUUACGAGGA
30 °C
  self-splicing fitness (ln): -4.32 ± 0.39
37 °C
  self-splicing fitness (ln): -2.54 ± 0.21

## CCGAAGCAAUAUUACGAGGU
30 °C
  self-splicing fitness (ln): -3.79 ± 0.2
37 °C
  self-splicing fitness (ln): -2.9 ± 0.26

## CCGAAGCAAUAUUACGAGUG
30 °C
  self-splicing fitness (ln): -0.855 ± 0.049
37 °C
  self-splicing fitness (ln): -0.0149 ± 0.062

## CCGAAGCAAUAUUACGAUAA
30 °C
  self-splicing fitness (ln): -2.83 ± 0.12
37 °C
  self-splicing fitness (ln): -2.96 ± 0.25

## CCGAAGCAAUAUUACGAUAC
30 °C
  self-splicing fitness (ln): -3.86 ± 0.47
37 °C
  self-splicing fitness (ln): -1.95 ± 0.26

## CCGAAGCAAUAUUACGAUGC
30 °C
  self-splicing fitness (ln): -4.36 ± 0.26
37 °C
  self-splicing fitness (ln): -2.34 ± 0.23

## CCGAAGCAAUAUUACGAUUC
37 °C
  self-splicing fitness (ln): -2.07 ± 0.25

## CCGAAGCAAUAUUACGAUUG
30 °C
  self-splicing fitness (ln): -1.16 ± 0.093
37 °C
  self-splicing fitness (ln): -0.0885 ± 0.095

## CCGAAGCAAUAUUACGCAGA
30 °C
  self-splicing fitness (ln): -2.91 ± 0.38
37 °C
  self-splicing fitness (ln): -2.57 ± 0.33

## CCGAAGCAAUAUUACGCAUG
30 °C
  self-splicing fitness (ln): -1.84 ± 0.11
37 °C
  self-splicing fitness (ln): -0.892 ± 0.12

## CCGAAGCAAUAUUACGCCAC
37 °C
  self-splicing fitness (ln): -1.9 ± 0.34

## CCGAAGCAAUAUUACGCCGU
30 °C
  self-splicing fitness (ln): -2.44 ± 0.27
37 °C
  self-splicing fitness (ln): -1.04 ± 0.36

## CCGAAGCAAUAUUACGCCUU
30 °C
  self-splicing fitness (ln): -3.35 ± 0.36
37 °C
  self-splicing fitness (ln): -1.21 ± 0.3

## CCGAAGCAAUAUUACGCUGA
30 °C
  self-splicing fitness (ln): -3.08 ± 0.27
37 °C
  self-splicing fitness (ln): -3.41 ± 0.42

## CCGAAGCAAUAUUACGGGAA
30 °C
  self-splicing fitness (ln): -2.26 ± 0.25
37 °C
  self-splicing fitness (ln): -1.73 ± 0.32

## CCGAAGCAAUAUUACGGGUC
30 °C
  self-splicing fitness (ln): -3.13 ± 0.22
37 °C
  self-splicing fitness (ln): -3.03 ± 0.37

## CCGAAGCAAUAUUACGGUCC
30 °C
  self-splicing fitness (ln): -3.68 ± 0.46
37 °C
  self-splicing fitness (ln): -2.26 ± 0.26

## CCGAAGCAAUAUUACGGUCU
30 °C
  self-splicing fitness (ln): -2.93 ± 0.17
37 °C
  self-splicing fitness (ln): -3.23 ± 0.25

## CCGAAGCAAUAUUACGUGCG
30 °C
  self-splicing fitness (ln): -1.04 ± 0.085
37 °C
  self-splicing fitness (ln): -0.542 ± 0.096

## CCGAAGCAAUAUUACGUUUU
30 °C
  self-splicing fitness (ln): -3.83 ± 0.17
37 °C
  self-splicing fitness (ln): -3.26 ± 0.18

## CCGCAGCAAUAUUACGAACC
30 °C
  self-splicing fitness (ln): -1.84 ± 0.39

## CCGCAGCAAUAUUACGACCG
30 °C
  self-splicing fitness (ln): -0.576 ± 0.074
37 °C
  self-splicing fitness (ln): 0.229 ± 0.11

## CCGCAGCAAUAUUACGAGAC
30 °C
  self-splicing fitness (ln): -2.24 ± 0.22

## CCGCAGCAAUAUUACGAUGU
30 °C
  self-splicing fitness (ln): -3.21 ± 0.14
37 °C
  self-splicing fitness (ln): -2.83 ± 0.17

## CCGCAGCAAUAUUACGCAAG
30 °C
  self-splicing fitness (ln): -1.41 ± 0.095
37 °C
  self-splicing fitness (ln): -1.18 ± 0.13

## CCGCAGCAAUAUUACGCAGA
30 °C
  self-splicing fitness (ln): -2.89 ± 0.2
37 °C
  self-splicing fitness (ln): -2.25 ± 0.17

## CCGCAGCAAUAUUACGCAUC
30 °C
  self-splicing fitness (ln): -3.93 ± 0.28
37 °C
  self-splicing fitness (ln): -1.95 ± 0.22

## CCGCAGCAAUAUUACGCGAG
30 °C
  self-splicing fitness (ln): -3.17 ± 0.12
37 °C
  self-splicing fitness (ln): -2.2 ± 0.16

## CCGCAGCAAUAUUACGCGGG
30 °C
  self-splicing fitness (ln): -4.07 ± 0.14
37 °C
  self-splicing fitness (ln): -3.74 ± 0.12

## CCGCAGCAAUAUUACGCUAG
30 °C
  self-splicing fitness (ln): -1.53 ± 0.1
37 °C
  self-splicing fitness (ln): -2.05 ± 0.12

## CCGCAGCAAUAUUACGCUUC
30 °C
  self-splicing fitness (ln): -4.17 ± 0.46

## CCGCAGCAAUAUUACGGACC
30 °C
  self-splicing fitness (ln): -3.45 ± 0.41

## CCGCAGCAAUAUUACGGAGA
30 °C
  self-splicing fitness (ln): -2.53 ± 0.17
37 °C
  self-splicing fitness (ln): -2.36 ± 0.21

## CCGCAGCAAUAUUACGGCAU
30 °C
  self-splicing fitness (ln): -3.29 ± 0.2
37 °C
  self-splicing fitness (ln): -2.38 ± 0.17

## CCGCAGCAAUAUUACGGGCG
30 °C
  self-splicing fitness (ln): -2.13 ± 0.11
37 °C
  self-splicing fitness (ln): -1.95 ± 0.12

## CCGCAGCAAUAUUACGGGUC
30 °C
  self-splicing fitness (ln): -3.86 ± 0.18
37 °C
  self-splicing fitness (ln): -2.69 ± 0.19

## CCGCAGCAAUAUUACGGUGC
30 °C
  self-splicing fitness (ln): -2.98 ± 0.18
37 °C
  self-splicing fitness (ln): -2.63 ± 0.22

## CCGCAGCAAUAUUACGUAAU
30 °C
  self-splicing fitness (ln): -3.78 ± 0.15
37 °C
  self-splicing fitness (ln): -2.3 ± 0.19
